# Publication PMC4227749
# Tested on: AgrA L171A (Staphylococcus aureus SH1000)
# Test: EMSA
# Conditions: EMSA: 10 mM HEPES pH 7.6, 50 mM KCl, 1 mM EDTA, 2 mM DTT, 0.5% Triton X-100, 5% glycerol, 37 C; 1 uM AgrA (pre-incubated at 3 uM with 50 mM acetyl phosphate …)
substance,measurement,value
agr operon intergenic region P2-P3 probe,binding signal (% of wild-type binding),50
